# Assay results taken from patent publication US7211424B1, “Mammalian Subtilisin/kexin isozyme SKI-1: a proprotein convertase with a unique cleavage specificity” (Institut de Recherches Cliniques de Montreal, priority 1999, dated 2007).
# T1: peptide IX, hSKI-1 (128-142)
# T1 chain: PQRKVFRSLKYAESD
# T2: peptide VIII, hSKI-1 (128-136)
# T2 chain: PQRKVFRSL
# T3: peptide (x) SREBP-2 10 mer
# T3 chain: SGSGRSVLSFES
# T4: peptide VII, hSKI-1 (187-201)
# T4 chain: RAIPRQVAQTLQADV
# T5: peptide VI, hSKI-1 (156-172)
# T5 chain: WQSSRPLRRASLSLGSG
# T6: peptide X, Q-hSKI-1 (132-142): Abz-VFRSLKYAESD-Y(NO2)-A
# T6 chain: XVFRSLKYAESDXA
# T7: peptide III, hSKI-1(174-191)
# T7 chain: WHATGRHSSRRLLRAIPR
# T8: peptide IV, hSKI-1 (174-188+LE)
# T8 chain: WHATGRHSSRRLLRALE
# T9: peptide XI, Q-hSKI-1 (134-142): Abz-RSLKYAESD-Y(NO2)-A
# T9 chain: XRSLKYAESDXA
# T10: peptide (iv) hSKI-1 (181-188+Glu)
# T10 chain: SSRRLLRAIE
# T11: peptide II, hSREBP-2(504-530)
# T11 chain: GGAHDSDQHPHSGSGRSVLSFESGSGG
# T12: peptide I, hproBDNF(50-63)
# T12 chain: KAGSRGLTSLADTF
# Experiments:
# [1] = target: T1, peptide IX, hSKI-1 (128-142)
# [2] = target: T2, peptide VIII, hSKI-1 (128-136)
# [3] = target: T3, peptide (x) SREBP-2 10 mer
# [4] = target: T4, peptide VII, hSKI-1 (187-201)
# [5] = target: T5, peptide VI, hSKI-1 (156-172)
# [6] = target: T6, peptide X, Q-hSKI-1 (132-142): …
# [7] = target: T7, peptide III, hSKI-1(174-191)
# [8] = target: T8, peptide IV, hSKI-1 (174-188+LE)
# [9] = target: T9, peptide XI, Q-hSKI-1 (134-142): …
# [10] = target: T10, peptide (iv) hSKI-1 (181-188+Glu)
# [11] = target: T11, peptide II, hSREBP-2(504-530)
# [12] = target: T12, peptide I, hproBDNF(50-63)
# [13] = substrate: CC(C)C[C@H](NC(=O)[C@H](CO)NC(=O)[C@H](CCCNC(=N)N)NC(=O)[C@H](Cc1ccccc1)NC(=O)[C@@H](NC(=O)c1ccccc1N)C(C)C)C(=O)N[C@@H](CCCCN)C(=O)N[C@@H](Cc1ccc(O)cc1)C(=O)N[C@@H](C)C(=O)N[C@@H](CCC(=O)O)C(=O)N[C@@H](CO)C(=O)N[C@@H](CC(=O)O)C(=O)N[C@@H](Cc1ccc(O)c([N+](=O)[O-])c1)C(=O)N[C@@H](C)C(N)=O; experiment: Hydrolysis of quenched fluorogenic substrates by shed-hSKI-1; format: biochemical, human; settings: other: shed-hSKI-1; averages of duplicate assays; pH 6.5; 37.0 °C
# Method: (§1) For digestions, each peptide was typically reacted at 37° C. with 10 μl of the concentrated enzyme preparation in a buffer consisting of 50 mM HEPES (N-2-Hydroxyethyl piperazine-N′-2 EthaneSulfonic acid) (ICN Biomedicals Inc), 50 mM MES (2-[N-Morpholino] EthaneSulfonic acid) (Sigma Chem Co.), and 3 mM Ca^2+-acetate (pH 6.5). The digestion products were separated by RP-HPLC on a Beckman 5 μm Ultrasphere C18 column (0.2×25 cm) and eluted with a 1%/min linear gradient of aqueous 0.1% TFA/CH3CN ([…]) at a flow rate of 1 ml/min. The collected peptides were characterized by mass spectrometry and amino acid composition, which was also used to quantitate the amount of various substrates and products. The digestions of the quenched fluorogenic peptides were analyzed by RP-HPLC using a dual UV (210 nm) and fluorescence (excitation and emission wavelengths of 320 and 420 nm, respectively) detector (Rainin).
# (§2) Km(app), Vmax(app) and Ki(app) determinations—Following digestion reactions with increasing substrate concentrations, the products were separated by RP-HPLC. The rate of substrate hydrolysis was obtained from the integrated peak areas of the chromatograms. Km(app) and Vmax(app) values were estimated using nonlinear regression analysis (Enzfitter software; Elsevier Biosoft, Cambridge, UK) of plots of the hydrolysis rate vs the substrate concentration. […] The Ki(app) values were estimated from Dixon plots as described (16). For the two quenched peptides, kinetic parameters were determined as described (17).
# [14] = substrate: CC(C)C[C@H](NC(=O)[C@H](CO)NC(=O)[C@H](CCCNC(=N)N)NC(=O)c1ccccc1N)C(=O)N[C@@H](CCCCN)C(=O)N[C@@H](Cc1ccc(O)cc1)C(=O)N[C@@H](C)C(=O)N[C@@H](CCC(=O)O)C(=O)N[C@@H](CO)C(=O)N[C@@H](CC(=O)O)C(=O)N[C@@H](Cc1ccc(O)c([N+](=O)[O-])c1)C(=O)N[C@@H](C)C(N)=O; experiment: as above; format: biochemical, human; settings: other: shed-hSKI-1; averages of duplicate assays; pH 6.5; 37.0 °C
# Method: as §1, §2
protein,measurement,setting,value
"shed-hSKI-1 (Homo sapiens) (protein, SKI-1 is further processed to remove the transmembrane domain that keeps it integrated in the ER membrane, which generates a SKI-1 soluble form; made in house; host or cells: HK293 cells stably transfected with full-length hSKI-1 in pcDNA3; shed enzyme in the medium) RAIPRQVAQTLQADVLWQMGYTGANVRVAVFDTGLSEKHPHFKNVKERTNWTNERTLDDGLGHGTFVAGVIASMRECQGFAPDAELHIFRVFTNNQVSYTSWFLDAFNYAILKKIDVLNLSIGGPDFMDHPFVDKVWELTANNVIMVSAIGNDGPLYGTLNNPADQMDVIGVGGIDFEDNIARFSSRGMTTWELPGGYGRMKPDIVTYGAGVRGSGVKGGCRALSGTSVASPVVAGAVTLLVSTVQKRELVNPASMKQALIASARRLPGVNMFEQGHGKLDLLRAYQILNSYKPQASLSPSYIDLTECPYMWPYCSQPIYYGGMPTVVNVTILNGMGVTGRIVDKPDWQPYLPQNGDNIEVAFSYSSVLWPWSGYLAISISVTKKAASWEGIAQGHVMITVASPAETESKNGAEQTSTVKLPIKVKIIPTPPRSKRVLWDQYHNLRYPPGYFPRDNLRMKNDPLDWNGDHIHTNFRDMYQHLRSMGYFVEVLGAPFTCFDASQYGTLLMVDSEEEYFPEEIAKLRRDVDNGLSLVIFSDWYNTSVMRKVKFYDENTRQWWMPDTGGANIPALNELLSVWNMGFSDGLYEGEFTLANHDMYYASGCSIAKFPEDGVVITQTFKDQGLEVLKQETAVVENVPILGLYQIPAEGGGRIVLYGDSNCLDDSHRQKDCFWLLDALLQYTSYGVTPPSLSHSGNRQRPPSGAGSVTPERMEGNHLHRYSKVLEAHLGDPKPRPLPACPRLSWAKPQPLNETAPSNLWKHQKLLSIDLDKVVLPNFRSNRPQVRPLSPGESGAWDIPGGIMPGRYNQEV",cleavage of synthetic peptide (vii): efficiently cleaved,[1],"only the peptides (iii), (iv), (vii), (viii) (ix) and (x) are efficiently cleaved by the recombinant SKI-1"
same,cleavage of synthetic peptide (vi): not efficiently cleaved,[2],"only the peptides (iii), (iv), (vii), (viii) (ix) and (x) are efficiently cleaved by the recombinant SKI-1"
same,cleavage of synthetic peptide (x): efficiently cleaved,[3],"only the peptides (iii), (iv), (vii), (viii) (ix) and (x) are efficiently cleaved by the recombinant SKI-1"
same,cleavage of synthetic peptide (v): not efficiently cleaved,[4],"only the peptides (iii), (iv), (vii), (viii) (ix) and (x) are efficiently cleaved by the recombinant SKI-1"
same,cleavage of synthetic peptide (i): not efficiently cleaved,[5],"only the peptides (iii), (iv), (vii), (viii) (ix) and (x) are efficiently cleaved by the recombinant SKI-1"
same,kinetic parameters (Vmax/Km) relative to quenched peptide (b),[6],this peptide is 6-fold more efficient that the nearest candidate quenched peptide (b)
same,cleavage of synthetic peptide (ii): not efficiently cleaved,[7],"only the peptides (iii), (iv), (vii), (viii) (ix) and (x) are efficiently cleaved by the recombinant SKI-1"
same,cleavage of synthetic peptide (iii): efficiently cleaved,[8],"only the peptides (iii), (iv), (vii), (viii) (ix) and (x) are efficiently cleaved by the recombinant SKI-1"
same,cleavage of quenched fluorogenic peptide (HPLC with UV and fluorescence detection),[9],clearly revealed a single site of cleavage in peptides (a) and (b)
same,cleavage of synthetic peptide (iv): efficiently cleaved,[10],"only the peptides (iii), (iv), (vii), (viii) (ix) and (x) are efficiently cleaved by the recombinant SKI-1"
same,cleavage of synthetic peptide (ix): efficiently cleaved,[11],"only the peptides (iii), (iv), (vii), (viii) (ix) and (x) are efficiently cleaved by the recombinant SKI-1"
same,cleavage of synthetic peptide (viii): efficiently cleaved,[12],"only the peptides (iii), (iv), (vii), (viii) (ix) and (x) are efficiently cleaved by the recombinant SKI-1"
same,Km,[13],31.3 µM
same,Vmax,[13],0.567 µmol/min
same,Km,[14],8.7 µM
same,Vmax,[14],0.948 µmol/min
